Laboratory results reported in article PMC2744565, “Human Telomerase Reverse Transcriptase (hTERT) Q169 Is Essential for Telomerase Function In Vitro and In Vivo”.

Legend:
Conditions in all cases: protein: ivt; tags: N-terminal FLAG; label: 5'-biotin
[1] = target: hTERT WT (Homo sapiens, UniProt O14746 1-1132); test: pull-down; 5'-biotin primers with RRL-made 35S-hTERT (no hTR), neutravidin bead pull-down; primer mix pre-incubated on ice 45-60 min; buffer, salt and pH not given (ref 28)
[2] = target: T1, hTERT Q169N (Homo sapiens, UniProt O14746 1-1132, Q169N); test: as above
[3] = target: T2, hTERT Q169D (Homo sapiens, UniProt O14746 1-1132, Q169D); test: as above
[4] = target: T3, hTERT Q169A (Homo sapiens, UniProt O14746 1-1132, Q169A); test: as above
[5] = target: T1, hTERT Q169N; test: pull-down; stronger than WT; 5'-biotin primers with RRL-made 35S-hTERT (no hTR), neutravidin bead pull-down; primer mix pre-incubated on ice 45-60 min; buffer, salt and pH not given (ref 28)
[6] = target: T2, hTERT Q169D; test: as above
[7] = target: T3, hTERT Q169A; test: as above

T1 sequence (O14746 whole entry Q169N): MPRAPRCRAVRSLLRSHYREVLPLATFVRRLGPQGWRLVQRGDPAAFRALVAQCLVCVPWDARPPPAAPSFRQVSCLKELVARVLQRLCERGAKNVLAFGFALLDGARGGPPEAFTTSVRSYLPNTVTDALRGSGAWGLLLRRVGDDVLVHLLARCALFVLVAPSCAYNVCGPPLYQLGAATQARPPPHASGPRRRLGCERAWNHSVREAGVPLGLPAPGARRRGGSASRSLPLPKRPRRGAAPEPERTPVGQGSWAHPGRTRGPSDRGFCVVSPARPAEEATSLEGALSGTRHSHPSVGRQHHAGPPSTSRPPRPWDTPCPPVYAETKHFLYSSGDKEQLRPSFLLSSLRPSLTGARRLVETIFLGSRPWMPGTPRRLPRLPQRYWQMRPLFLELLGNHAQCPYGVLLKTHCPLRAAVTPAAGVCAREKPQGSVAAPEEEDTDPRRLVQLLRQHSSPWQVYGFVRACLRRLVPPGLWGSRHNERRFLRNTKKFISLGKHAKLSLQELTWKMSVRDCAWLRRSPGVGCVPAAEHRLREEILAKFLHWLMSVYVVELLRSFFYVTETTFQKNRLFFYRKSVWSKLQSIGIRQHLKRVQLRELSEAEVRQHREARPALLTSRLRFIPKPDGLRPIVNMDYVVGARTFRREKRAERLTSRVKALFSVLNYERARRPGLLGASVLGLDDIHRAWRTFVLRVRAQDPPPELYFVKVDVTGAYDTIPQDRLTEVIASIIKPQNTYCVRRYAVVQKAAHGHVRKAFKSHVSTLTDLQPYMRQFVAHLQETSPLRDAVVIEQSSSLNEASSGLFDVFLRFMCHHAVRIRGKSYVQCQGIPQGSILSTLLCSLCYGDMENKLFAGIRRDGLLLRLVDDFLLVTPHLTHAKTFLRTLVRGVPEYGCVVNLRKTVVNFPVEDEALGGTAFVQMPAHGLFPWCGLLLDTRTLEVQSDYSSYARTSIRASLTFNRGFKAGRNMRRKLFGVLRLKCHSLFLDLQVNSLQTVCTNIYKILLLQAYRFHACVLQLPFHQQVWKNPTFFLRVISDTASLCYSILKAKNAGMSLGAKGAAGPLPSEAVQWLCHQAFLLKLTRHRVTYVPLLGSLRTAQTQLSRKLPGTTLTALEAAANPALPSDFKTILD
T3 sequence (O14746 whole entry Q169A): as the sequence (O14746 whole entry Q169N) above, with N169A counted along it
T2 sequence (O14746 whole entry Q169D): as the sequence (O14746 whole entry Q169N) above, with N169D counted along it
Sequence of hTERT WT (O14746 whole entry): as the sequence (O14746 whole entry Q169N) above, with N169Q counted along it

Row | Binder | binding result [1] | binding result [2] | binding result [3] | binding result [4] | binding result [5] | binding result [6] | binding result [7]
1 | TTGGGGTTGGGGTTGGGG (ssDNA) [bio-Tetrahymena] | binds | binds | binds | binds | – | – | –
2 | TTAGGGTTAGGG (ssDNA) [bio-TELO12] | – | – | – | – | binds | binds | binds
3 | TTAGGGTTAGGGTTAGGGTTAGGG (ssDNA) [bio-TELO24] | – | – | – | – | – | – | binds
4 | TTAGGG (ssDNA) [bio-TELO6] | – | – | – | – | binds | binds | binds
